Common to all, as to test: ITC
(In general: ITC needs no label: the signal is the heat of the interaction.)

In test [1] the target is T1, human CIS lacking both the N-terminal region (residues 1-66) and the PEST motif (ΔNT/ΔPEST) in trimeric … (UniProt Q9NSE2 67-258; Q15370 1-118; Q15369 17-112).
In test [2] the target is T2, hCIS-SH2-BC complex (ternary complex of human GST-CIS-SH2 construct, residues 66-258 with PEST region 174-202 … (UniProt Q9NSE2 66-258; Q15370 1-118; P83940 17-112).
The target in test [3] is T2, hCIS-SH2-BC complex (ternary complex of …). The source holds these as a separate data set.
The target of test [4] is human CIS lacking the PEST motif (ΔPEST) in trimeric complex with elongin B and elongin C (UniProt Q9NSE2 1-258; Q15370 1-118; Q15369 17-112).
Test [5] concerns the target T1, human CIS lacking both the N-terminal …. The source holds these as a separate data set.
Test [6] deals with human full-length CIS in trimeric complex with elongin B and elongin C (UniProt Q9NSE2 1-258; Q15370 1-118; Q15369 17-112).

Like-named read-outs stand apart in the source and are kept apart here. Non-standard residues stand in square brackets, D forms with d. No end group written: not given here. pY = N[C@@H](Cc1ccc(OP(=O)(O)O)cc1)C(=O)O

B1: JAK1-Y1034 phosphopeptide with an alanine substitution at the +3 position (peptide)
peptide: AIETDKE[pY]YTAKDDRD
By Kd is commonly meant the equilibrium constant for the complex coming apart. A high value points to lower affinity. B1 came in with a Kd in test [1] of 8300 nM.

B2: IL-2Rβ cytoplasmic domain phosphopeptide (Tyr361 phosphorylated) (peptide)
peptide: YDP[pY]SEEDPDEG
In the case of B2, the Kd in test [2] and in test [3] was 1500 nM each time.

B3: IL-2Rβ cytoplasmic domain phosphopeptide (Tyr355 phosphorylated) (peptide)
peptide: CQV[pY]FTYDPYSE
Turning to B3, the Kd in test [2] and in test [3] was 940 nM in each case.

B4: JAK1-Y1034 phosphopeptide with an alanine substitution at the +5 position (peptide)
peptide: AIETDKE[pY]YTVKADRD
Molecule B4 came in with a Kd in test [1] of 6300 nM.

B5: IL-2Rβ cytoplasmic domain phosphopeptide (Tyr392 phosphorylated) (peptide)
peptide: DDA[pY]CTFPSRDD
For B5, the Kd in test [2] and in test [3] was 1800 nM throughout.

B6: JAK1-Y1034 phosphopeptide with an alanine substitution at the -3 position (peptide)
peptide: AIETAKE[pY]YTVKDDRD
As to B6, in test [1], binding was put at a Kd of 3500 nM.

B7: JAK3 activation loop phosphopeptide (Tyr980 phosphorylated) (peptide)
peptide: LLPLDKDYYVVREPGQ
modifications: not fully specified (residue 8)
Molecule B7 came in with a Kd in test [3] of 800 nM.

B8: JAK1 activation loop phosphopeptide (Tyr1034 phosphorylated) (peptide)
peptide: AIETDKE[pY]YTVKDDRD
Consider B8, for which the Kd in test [3] stood at 2100 nM; in test [4] it was 5300 nM; in test [5], 2200 nM; in test [6] it was 5300 nM; in test [1] it was 2200 nM.

The values above are taken from patent publication US20180298101A1 (published 2018).
